Results taken from PMC11048008.

Target: β2-adrenergic receptor (β2AR) (human) (UniProt P07550)

Work on AITTGGNTYYANSVKGRFTISRDNA [CDR2-NDP P4 (25-amino-acid nanobody-derived peptide from the CDR2 of Nb71)] yielded a cAMP formation (HitHunter cAMP assay) in β2AR-transfected HEK-293 cells, P4 alone 10^-9 to 10^-4 M, no isoproterenol: EC50 of 0.209 µM, a cAMP formation (HitHunter cAMP assay) in β2AR-transfected HEK-293 cells, P4 alone 10^-9 to 10^-4 M, no isoproterenol: increase in cAMP as percent of the maximum response to isoproterenol of less than 20% and a decrease of isoproterenol potency in the cAMP assay by 50 µM P4 in β2AR-transfected HEK-293 cells (pair interfered with: agonist-activated β2AR and endogenous Gαs) of less than 20 fold. For the same binder, the reduction of the maximal isoproterenol-induced cAMP level by 50 µM P4 in β2AR-transfected HEK-293 cells (pair interfered with: agonist-activated β2AR and endogenous Gαs) was 40%.
